Here are results for 1 molecule from patent publication CN116253795A (SUN YAT SEN UNIV CANCER CENTER SUN YAT SEN UNIV AFFILIATED …, dated 2023).

Assay [1] addresses T1, gHgL胞外域全长蛋白 (recombinant single-chain EBV gL-linker-gH ectodomain with 6xHis, SEQ ID NO.12) (Epstein-Barr virus, M81 strain …).
T1 construct: not shown: 6xHis tag
Put plainly: ELISA, gHgL protein coated at 2 ug/mL, antibody titrated. A general note: An ELISA detects its analyte on a solid surface through an enzyme-linked reagent.

In assay [2] the target is T2, P9肽 (biotinylated 20-mer peptide of gL, aa 104-123) (Epstein-Barr virus, M81 strain, N-terminal biotin).
T2 peptide: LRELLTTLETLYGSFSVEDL
The experiment in a line: ELISA, biotinylated peptide on streptavidin plate, antibody 1 ug/mL.

In assay [3] the target is T1, gHgL胞外域全长蛋白 (recombinant single-chain …). Put plainly: SPR, Biacore 8K, antibody captured on Protein A chip, gHgL as analyte 3.125-200 nM. A general note: In SPR one partner is held on a chip, and binding of the other changes the refractive index at the surface.

B1: 兔源单克隆抗体10E4 (rabbit monoclonal antibody 10E4) (antibody, V domains shown)
VH: QQVKESGGRLVTPGTPLTLTCTASGFSLSTYWMSWVRQAPGKGLEYIGVIGGSGSTYYASWAKGRFTISKTSTTVDLKITSPTTEDTATYFCARDSGAGVRFRFWGPGTLVTVSS
VL: DLVMTQTPASVEAGVGGTVTINCQASENIGSRLAWYQQKPGQPPKLLIYRASTLESGVPSRFKGSGSGTEFTLTISDLECADAATYYCQCTYGVSITINYGNDFGGGTEVVVKG
notes: also called 单抗10E4
One may read the EC50 as the concentration at which the effect is half-maximal. A word on the Kd: it is the constant that tells how readily two partners part at equilibrium. In the case of B1, the concentration for a half-maximal effect (EC50) in assay [1] turned out to be 0.0335 mg/L. The binding result in assay [2] is “binds”. Besides, in assay [3], the Kd came out at 3.53 nM.
